Biological target: Thermotoga maritima CheA, full-length (Thermotoga maritima) (UniProt Q56310)
Experiment: cross-linking + SEC-MALS

Row | Molecule | stoichiometry N
1 | Thermotoga maritima CheA, full-length (from UniProt Q56310 1-671) (enzyme) | 2
2 | Thermotoga maritima CheW (natural protein) KEFEVLSFEIDEQALAFDVDNIEMVIEKSDITPVPKSRHFVEGVINLRGRIIPVVNLAKILGISFDEQKMKSIIVARTKDVEVGFLVDRVLGVLRITENQLDLTNVSDKFGKKSKGLVKTDGRLIIYLDIDKIIEEITV | 2
